Patent US20050025821A1, “Lipid-comprising drug delivery complexes and methods for their production” (priority 2001, published 2005)
Starred links: 1 amine or outer side, 2 acyl side, 3 side chain; linkers in the order of their positions; H or OH if unused. Suc = O=C(CCC(=O)[*:2])[*:1]

How the values were obtained:
[1] = Particle sizing (mean diameter, polydispersity; Coulter N4Plus, unimodal mode); format: physicochemical; settings: condensed DNA 2:1 μg:μg, DNA 0.143 mg/ml, second experiment (Table 18)
Experimental: The liposomes were prepared as follows: 6000 nmol of 1,2-dioleoyl-3-trimethylammonium-propane (DOTAP) (Avanti Polar Lipid Inc., Alabaster, Ala.) at 20 mg/ml in chloroform and 6000 nmol of cholesterol (Avanti Polar Lipid Inc., Alabaster, Ala.), also prepared at 20 mg/ml in chloroform (J. T. Baker, Phillipsburg N.J.), were mixed in a borosilicate tube and dried for 1 hr under nitrogen at 4 liters per minute (LPM) using a N-EVAP™ (Organomation, Berlin, Mass.). The resulting lipid films were hydrated in 2 ml of 5% USP dextrose (Abbott Laboratories, North Chicago, Ill.) to achieve a final lipid concentration of 6 mM. […]
LPDs were prepared as described by Li, S., et al., Gene Therapy, 1998. […] The surface zeta potential was determined using a Malvern zeta sizer (Malvern Instrument Inc, Sacramento, Calif.).
DLPDs were generated by a modified version of the method previously described by Harvie, P., F. M. Wong, and M. B. Bally, Biophys J, 1998. […] Particle sizes were assessed as described above and typically were in the 150-300 nm range.
Typically, 0.15 ml of mixed micelles prepared as describe above were mixed with 350 μl of DNA pre-compacted with protamine at a 2:1 protamine:DNA ratio under mild vortex agitation (speed 3). […] The surface zeta-potential was determined using a Malvern zeta sizer (Malvern Instrument Inc, Sacramento, Calif.). […]

KB cells = assay: In vitro transfection (luciferase expression); format: cell-based; settings: 1 μg DNA/well
Experimental: The following day, the media was removed and replaced with 500 μl of fresh serum-free media.

[2] = Surface zeta potential (Malvern zeta sizer); format: physicochemical; settings: 10 mol % in LPD, 5% dextrose USP pH 5.0
Experimental: LPDs were prepared as described by Li, S., et al., Gene Therapy, 1998. 5(7): p. 930-937. Lipid:protamine:DNA ratios of 12 nmol:0.9 μg:1 μg, 12 nmol:0.97 μg:1 μg, and 12 nmol:1 μg:1 μg were used for these experiments, as indicated. As a typical example, 150 μl of liposomes at 6mM were mixed with 197 μl of 5% dextrose USP followed by the addition of 153 μl of pre-compacted DNA at 490 μg/ml. This operation was performed under moderate vortex agitation (speed #3), and the resulting LPD solution contained 150 μg DNA/ml. […] The surface zeta potential was determined using a Malvern zeta sizer (Malvern Instrument Inc, Sacramento, Calif.).
Typically, 0.15 ml of mixed micelles prepared as describe above were mixed with 350 μl of DNA pre-compacted with protamine at a 2:1 protamine:DNA ratio under mild vortex agitation (speed 3). Particles formed spontaneously, i.e. solution became cloudy. […] Particle sizes were assessed as described above and typically were in the 100-200 nm range as determined using a N4Plus coulter (Beckman Coulter, Miami, Fla.) sizer in unimodal mode. The surface zeta-potential was determined using a Malvern zeta sizer (Malvern Instrument Inc, Sacramento, Calif.). […]
PPAA polymer was supplied by Dr. Allan Hoffman's laboratory (University of Washington, Seattle, Wash.). […] The surface zeta potential was determined using a Malvern zeta sizer (Malvern Instrument Inc, Sacramento, Calif). […]

| Substance | size (nm) [1] [nm] | increase in transfection activity when formulated with CHEMS:DOPE compared to peptide-compacted DNA alone (KB cells) | decrease in the zeta-potential versus conventional LPD [2] [mV] |
| --- | --- | --- | --- |
| KHKHKHKHKGKHKHKHKHK | 25 | No change in the transfection activity | – |
| DSPE-PEG5K-succinyl-ACDCRGDCFCG-COOH ({DSPE-PEG5K-Suc}-ACDCRGDCFCG-OH; cysteine pairing not given here) [DSPE-PEG5K-RGD, targeting factor-pegylated lipid conjugate] | – | – | 15 |
